In the Human Domainome abundance scans (Beltran et al. 2025):
± gives the uncertainty stated by the source.

test: abundance fitness (aPCA) (normalised: wild type 0, dead -1); higher = more abundant; growth selection in yeast, the domain comes from the species named; settings: Homo sapiens

Going from “Lipoamide acyltransferase component of branched-chain alpha-keto acid dehydrogenase complex, mitochondrial V192S, P11182” to “Lipoamide acyltransferase component of branched-chain alpha-keto acid dehydrogenase complex, mitochondrial L201C, P11182”, the abundance fitness falls from -0.041 ± 0.053 to -0.243 ± 0.064.

“Lipoamide acyltransferase component of branched-chain alpha-keto acid dehydrogenase complex, mitochondrial S189Y, P11182” and “Lipoamide acyltransferase component of branched-chain alpha-keto acid dehydrogenase complex, mitochondrial K196Y, P11182” are within error of each other in abundance fitness: -0.258 ± 0.19 for the first, -0.222 ± 0.058 for the second.

“Lipoamide acyltransferase component of branched-chain alpha-keto acid dehydrogenase complex, mitochondrial R178T, P11182” and “Lipoamide acyltransferase component of branched-chain alpha-keto acid dehydrogenase complex, mitochondrial D197H, P11182” are within error of each other in abundance fitness: -0.114 ± 0.067 for the first, 0.025 ± 0.11 for the second.

First: Lipoamide acyltransferase component of branched-chain alpha-keto acid dehydrogenase complex, mitochondrial L209D, P11182
Second: Lipoamide acyltransferase component of branched-chain alpha-keto acid dehydrogenase complex, mitochondrial G195L, P11182
The abundance fitness of the first is higher: -0.203 ± 0.045 for the first, -0.927 ± 0.055 for the second.

Going from “Lipoamide acyltransferase component of branched-chain alpha-keto acid dehydrogenase complex, mitochondrial A176P, P11182” to “Lipoamide acyltransferase component of branched-chain alpha-keto acid dehydrogenase complex, mitochondrial R199S, P11182”, the abundance fitness rises from -0.203 ± 0.043 to -0.08 ± 0.048.

“Lipoamide acyltransferase component of branched-chain alpha-keto acid dehydrogenase complex, mitochondrial D197C, P11182” and “Lipoamide acyltransferase component of branched-chain alpha-keto acid dehydrogenase complex, mitochondrial L188H, P11182” are within error of each other in abundance fitness: -0.319 ± 0.095 for the first, -0.368 ± 0.094 for the second.

Compared with “Lipoamide acyltransferase component of branched-chain alpha-keto acid dehydrogenase complex, mitochondrial E210P, P11182”, “Lipoamide acyltransferase component of branched-chain alpha-keto acid dehydrogenase complex, mitochondrial K202E, P11182” is higher in abundance fitness: -0.081 ± 0.056 for the first, 0.069 ± 0.052 for the second.

Compared with “Lipoamide acyltransferase component of branched-chain alpha-keto acid dehydrogenase complex, mitochondrial L188N, P11182”, “Lipoamide acyltransferase component of branched-chain alpha-keto acid dehydrogenase complex, mitochondrial E210A, P11182” is higher in abundance fitness: -0.567 ± 0.095 for the first, 0.021 ± 0.038 for the second.

Compared with “Lipoamide acyltransferase component of branched-chain alpha-keto acid dehydrogenase complex, mitochondrial K202D, P11182”, “Lipoamide acyltransferase component of branched-chain alpha-keto acid dehydrogenase complex, mitochondrial S194E, P11182” is lower in abundance fitness: -0.215 ± 0.058 for the first, -0.504 ± 0.049 for the second.

Compared with “Lipoamide acyltransferase component of branched-chain alpha-keto acid dehydrogenase complex, mitochondrial G214P, P11182”, “Lipoamide acyltransferase component of branched-chain alpha-keto acid dehydrogenase complex, mitochondrial T213S, P11182” is higher in abundance fitness: -0.474 ± 0.2 for the first, -0.008 ± 0.046 for the second.

First: Lipoamide acyltransferase component of branched-chain alpha-keto acid dehydrogenase complex, mitochondrial R178A, P11182
Second: Lipoamide acyltransferase component of branched-chain alpha-keto acid dehydrogenase complex, mitochondrial Y208D, P11182
The abundance fitness of the first is higher: -0.028 ± 0.043 for the first, -0.213 ± 0.06 for the second.

“Lipoamide acyltransferase component of branched-chain alpha-keto acid dehydrogenase complex, mitochondrial G214D, P11182” and “Lipoamide acyltransferase component of branched-chain alpha-keto acid dehydrogenase complex, mitochondrial N184S, P11182” are within error of each other in abundance fitness: -0.041 ± 0.071 for the first, 0.168 ± 0.38 for the second.

“Lipoamide acyltransferase component of branched-chain alpha-keto acid dehydrogenase complex, mitochondrial L206R, P11182” and “Lipoamide acyltransferase component of branched-chain alpha-keto acid dehydrogenase complex, mitochondrial S189E, P11182” are within error of each other in abundance fitness: -0.071 ± 0.035 for the first, -0.001 ± 0.042 for the second.

Compared with “Lipoamide acyltransferase component of branched-chain alpha-keto acid dehydrogenase complex, mitochondrial G193H, P11182”, “Lipoamide acyltransferase component of branched-chain alpha-keto acid dehydrogenase complex, mitochondrial V192P, P11182” is higher in abundance fitness: -0.908 ± 0.2 for the first, 0.011 ± 0.05 for the second.

Going from “Lipoamide acyltransferase component of branched-chain alpha-keto acid dehydrogenase complex, mitochondrial D204C, P11182” to “Lipoamide acyltransferase component of branched-chain alpha-keto acid dehydrogenase complex, mitochondrial L180R, P11182”, the abundance fitness rises from -1.27 ± 0.098 to -0.563 ± 0.046.

Going from “Lipoamide acyltransferase component of branched-chain alpha-keto acid dehydrogenase complex, mitochondrial A173E, P11182” to “Lipoamide acyltransferase component of branched-chain alpha-keto acid dehydrogenase complex, mitochondrial S194W, P11182”, the abundance fitness falls from -0.219 ± 0.07 to -0.937 ± 0.069.

“Lipoamide acyltransferase component of branched-chain alpha-keto acid dehydrogenase complex, mitochondrial K187M, P11182” and “Lipoamide acyltransferase component of branched-chain alpha-keto acid dehydrogenase complex, mitochondrial E210F, P11182” are within error of each other in abundance fitness: -0.075 ± 0.12 for the first, -0.24 ± 0.066 for the second.

With “Lipoamide acyltransferase component of branched-chain alpha-keto acid dehydrogenase complex, mitochondrial R178F, P11182” the abundance fitness was -0.261 ± 0.1.
